The values that follow come from paper PMC7888707.

Assay [1] deals with PECAM-1–GFP (wild type, stably expressed in HL-60 cells) (human) (UniProt P16284). Description: FRET or BRET; FLIM measurement of FRET between the GFP and RFP tags in HL-60 cells plated on poly-L-lysine-coated coverslips at 37°C for 5 min, fixed in 4% PFA (resting, not in TEM).
The target is the same in assay [2]. Description: FRET or BRET; FLIM measurement of FRET between the GFP and RFP tags in dHL-60 cells perfused (1.5 dynes/cm2) over TNF-activated HUVEC monolayers, fixed in 4% PFA in mid-TEM; read at breached junctions. (In BRET a luciferase serves as donor, and the signal depends on an acceptor being close.)
Assay [3] has the same target. Description: FRET or BRET; FLIM measurement of FRET between the GFP and RFP tags in dHL-60 cells perfused (1.5 dynes/cm2) over IL-1β-activated HUVEC monolayers, fixed in 4% PFA in mid-TEM; read at breached junctions.

As to “L-selectin–RFP (wild type, stably expressed in HL-60 cells) (from UniProt P14151 39-372) (natural protein)”, the FRET efficiency in assay [1] worked out at 0.982%; in assay [2], 5.39%; in assay [3] it was 1.21%.
